Laboratory results from patent US20040204348A1 (ANGSTROM PHARMACEUTICALS, published 2004).
One block for each binder: values may come before it. Bridges are numbered along the chain shown (N, C = ends). L10 (R1 : -NH-m-phenylene-NH2) = linker L10: -CO-CH2-NH-CO-CH2-CH2-CH(CO-NH-CH2-COR1)-NH- with R1 = -NH-m-phenylene-NH2; L10 (R1 : -NH-o-phenylene-NH2) = linker L10: -CO-CH2-NH-CO-CH2-CH2-CH(CO-NH-CH2-COR1)-NH- with R1 = -NH-o-phenylene-NH2; L10 (R1 : -NH-p-phenylene-NH2) = linker L10: -CO-CH2-NH-CO-CH2-CH2-CH(CO-NH-CH2-COR1)-NH- with R1 = -NH-p-phenylene-NH2; L15 (R1 : phenyl) = linker L15: -CO-CH2-NH-CO-CH2-CH2-CH(CO-NH-CH2-CO-NH-R1)-NH- with R1 = phenyl (anilide)

Legend:
[1] = target: T1, uPAR expressed on cells (RKO human colon carcinoma cells, HeLa cells, stimulated HUVEC) (human, UniProt Q03405 23-305); assay: competition with 0.2 nM [125I]DFP-uPA on RKO cells, 4 C
T1 construct: whole, on cells; GPI-anchored receptor on whole cells
T1 sequence (Q03405 23-305): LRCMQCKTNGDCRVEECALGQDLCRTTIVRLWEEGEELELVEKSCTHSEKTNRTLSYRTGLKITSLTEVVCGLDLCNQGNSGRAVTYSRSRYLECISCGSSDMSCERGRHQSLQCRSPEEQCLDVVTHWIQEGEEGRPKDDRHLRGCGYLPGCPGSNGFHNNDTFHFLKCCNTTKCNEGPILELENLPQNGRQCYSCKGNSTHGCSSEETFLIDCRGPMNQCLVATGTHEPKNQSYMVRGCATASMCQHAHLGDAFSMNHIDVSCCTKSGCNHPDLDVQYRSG
Description: The compounds of the invention were tested for their binding to uPAR by measuring their ability to inhibit the binding of [¹²⁵I]DFP-uPA (catalytically inactivated high molecular weight uPA) to uPAR expressed by RKO (human colon carcinoma) cells. Cells (about 5×10⁴/well) were plated (in MEM with Earle's salts/10% FBS+antibiotics) in 24-well plates, then incubated in a humid 5% CO₂ atmosphere until the cells reach 70% confluence. Catalytically inactivated high molecular weight uPA (DFP-uPA) was radioiodinated using Iodo-gen® (Pierce) to a specific activity of about 250,000 cpm/mg. The cell-containing plates were then chilled on ice and the cells were washed twice (5 minutes each) with cold PBS/0.05% Tween-80. Test compounds were serially diluted in cold PBS/0.1% BSA/0.01% Tween-80 and added to each well to a final volume of 0.3 mL 10 minutes prior to the addition of the [¹²⁵I]DFP-uPA. Each well then receives 9500 cpm of [¹²⁵I]DFP-uPA at a final concentration of 0.2 nM. The plates were incubated at 4° C. for 2 hrs, after which time the cells were washed 3× (5 minutes each) with cold PBS/0.05% Tween-80. NaOH (1N; 0.5 mL) was added to each well to lyse the cells, the contents of each well were aspirated and the total counts in each well determined using a gamma counter. Each compound was tested in triplicate and the results are expressed as a percentage of the total radioactivity measured in wells containing [¹²⁵I]DFP-uPA alone, which is taken to represent maximum (100%) binding.
RTLPPD inhibited the binding of [¹²⁵I]DFP-uPA with an IC₅₀ of approximately 5 nM (FIG. 3). Modification of RTLPPD with Oregon Green shifted the IC₅₀ to approximately 800 nM (FIG. 3) and modification with biotin shifted the IC₅₀ to approximately 1.1 μM (FIG. 4). RTLMPD and RTLOPD inhibited the binding of [¹²⁵I]DFP-uPA to RKO cells with an IC₅₀ of approximately 50 and 100 nM , respectively (FIG. 3).

[2] = target: T1, uPAR expressed on cells (RKO human …); assay: whole-cell competition with [125I]DFP-uPA on HeLa cells, as the method is described; competition for binding to HeLa cells, not BIAcor
Description: HeLa cells (about 5×10⁴/well) were plated in medium MEM with Earle's salts/10% FBS+antibiotics) in 24-well plates, then incubated in a humid 5% CO₂ atmosphere until the cells reached 70% confluence. Catalytically inactivated high molecular weight uPA (DFP-uPA) labeled with radioactive ¹²⁵I (specific activity 250,000 cpm/mg) served as the uPAR label. Plates in which the cells were incubated were chilled on ice and the cells were washed twice (5 minutes each) with cold PBS/0.05% Tween-80. DFP-UPA and Å36 were serially diluted in cold PBS/0.1% BSA/0.01% Tween-80 and added to each well to a final volume of 0.3 mL 10 minutes prior to the addition of [¹²⁵I]DFP-UPA. Each well then received 9500 cpm of [¹²⁵I]DFP-UPA at a final concentration of 0.2 nM). The plates were incubated at 4° C. for 2 hrs, after which the cells are washed 3× (5 minutes each) with cold PBS/0.05% Tween-80. Cells were lysed by addition of NaOH (1N) 0.5 mL/well for 5 minutes at room temperature or until all the cells in each well were lysed by microscopic examination. The contents of each well were aspirated, and the total counts in each well were determined using a gamma counter. Each compound was tested in triplicate and the results were expressed as a percentage of the total radioactivity measured in wells containing [¹²⁵I]DFP-uPA alone, which is taken to represent maximum (100%) binding.

IC50 [1]: ~5 nM
B1: receptor targeting ligand-p-phenylenediamine derivative (RTLPPD) (peptide)
peptide: VSNKYFSNIHW
modifications: linker N-C via L10 (R1 : -NH-p-phenylene-NH2); also: cyclised by linker L10 between X1 N and X11 carbonyl

IC50 [1]: ~50 nM
B2: RTLMPD (peptide)
peptide: VSNKYFSNIHW
modifications: linker N-C via L10 (R1 : -NH-m-phenylene-NH2); also: cyclised by linker L10 between X1 N and X11 carbonyl
notes: also called isomer of RTLPPD incorporating m-phenylenediamine (MPD)

IC50 [1]: ~800 nM
B3: Oregon Green-modified-RTLPPD (peptide)
peptide: VSNKYFSNIHW
modifications: linker N-C via L10 (R1 : -NH-p-phenylene-NH2); also: Oregon Green (5/6-isomer mix) label, site not certain (intended on phenylenediamine amine)
notes: RTLPPD reacted with Oregon Green isothiocyanate; also called Oregon Green-labeled-RTLPPD

Kd [2]: 30 nM
B4: Å36 (peptide)
peptide: VSNKYFSNIHW
modifications: linker N-C via L15 (R1 : phenyl); also: cyclised by linker L15 between X1 N and X11 carbonyl
notes: also called A36; cyclic peptide Å36

IC50 [1]: ~100 nM
B5: RTLOPD (peptide)
peptide: VSNKYFSNIHW
modifications: linker N-C via L10 (R1 : -NH-o-phenylene-NH2); also: cyclised by linker L10 between X1 N and X11 carbonyl
notes: also called isomer of RTLPPD incorporating o-phenylenediamine (OPD)

IC50 [1]: ~1100 nM
B6: biotin-modified-RTLPPD (peptide)
peptide: VSNKYFSNIHW
modifications: linker N-C via L10 (R1 : -NH-p-phenylene-NH2); also: biotin-X (7-atom spacer) label, site not given here
notes: RTLPPD reacted with Biotin-X-sulfoNHS
